# Data as given in publication PMC3776929 (Cell, 2013).
# B1: Yaf9 (natural protein, S. cerevisiae, UniProt P53930 1-226, looked up)
# chain: MAPTISKRIKTLSVSRPIIYGNTAKKMGSVKPPNAPAEHTHLWTIFVRGPQNEDISYFIKKVVFKLHDTYPNPVRSIEAPPFELTETGWGEFDINIKVYFVEEANEKVLNFYHRLRLHPYANPVPNSDNGNEQNTTDHNSKDAEVSSVYFDEIVFNEPNEEFFKILMSRPGNLLPSNKTDDCVYSKQLEQEEIDRIEIGIEKVDKEIDELKQKLENLVKQEAINGS
# notes: Yaf9, N-Module subunit of SWR1, S. cerevisiae; source: endogenous, S. cerevisiae; co-purified in the SWR1 complex
# B2: Swc5 (natural protein, S. cerevisiae, UniProt P38326 1-303, looked up)
# chain: MPEVETKIIPNEKEDEDEDGYIEEEDEDFQPEKDKLGGGSDDSDASDGGDDYDDGVNRDKGRNKVDYSRIESESGGLIKTRRARQAEEEYAKTHKYESLTVESIPAKVNSIWEELQEASKNRLLSSSGKVGSVLDGSKEARSTTAAQQEDKILIERNYKFAGETVHEKKWVSRSSAEGQEYLNSLKFKQQAPAAPVQLEKAVRTKSNESRQHLRRPLKRPPLLEQIISGGLRPKLTTLEKSQLDWASYVDRAGLNDELVLHNKDGFLARQEFLQRVGSAEDERYKELRRQQLAQQLQQDSEAS
# notes: Swc5, subunit of SWR1, S. cerevisiae; also called small subunit Swc5; source: endogenous, S. cerevisiae; co-purified in the SWR1 complex
# What was measured:
# Swc5 = target: B2; assay: cross-linking; ∼45 μg affinity-purified SWR1 cross-linked with 1 mM DSS d0/d12 in SWR1 buffer, 37°C, 30 min; trypsin, SEC enrichment, LC-MS/MS, xQuest (CX-MS); settings: both partners purified
# Act1 = target: T1, Act1 (S. cerevisiae, UniProt P60010 1-375); assay: as above; settings: both partners purified
# T1 construct: Act1 (actin), N-Module subunit of SWR1, S. cerevisiae; source: endogenous, S. cerevisiae; co-purified in the SWR1 complex
# [1] = target: T2, Swr1, FLAG-tagged catalytic subunit of the SWR1 complex (S. cerevisiae, UniProt Q05471 1-1514); assay: co-IP; FLAG affinity purification of SWR1 (or a subcomplex) from S. cerevisiae, eluted with 3× FLAG peptide; SDS-PAGE (4%-12% Bis-Tris), Coomassie or SYPRO Orange stain; band intensities normalised for protein size for the stoichiometry; settings: partners not purified
# T2 construct: Swr1, catalytic ATPase subunit of the SWR1 complex, S. cerevisiae; HSA domain in the N-terminal half, split ATPase domain with long insert in the C-terminal half; also called Swr1-3xFLAG; Swr1 ATPase
# T2 sequence (Q05471 whole entry, the tested form may be a part, one chain of several): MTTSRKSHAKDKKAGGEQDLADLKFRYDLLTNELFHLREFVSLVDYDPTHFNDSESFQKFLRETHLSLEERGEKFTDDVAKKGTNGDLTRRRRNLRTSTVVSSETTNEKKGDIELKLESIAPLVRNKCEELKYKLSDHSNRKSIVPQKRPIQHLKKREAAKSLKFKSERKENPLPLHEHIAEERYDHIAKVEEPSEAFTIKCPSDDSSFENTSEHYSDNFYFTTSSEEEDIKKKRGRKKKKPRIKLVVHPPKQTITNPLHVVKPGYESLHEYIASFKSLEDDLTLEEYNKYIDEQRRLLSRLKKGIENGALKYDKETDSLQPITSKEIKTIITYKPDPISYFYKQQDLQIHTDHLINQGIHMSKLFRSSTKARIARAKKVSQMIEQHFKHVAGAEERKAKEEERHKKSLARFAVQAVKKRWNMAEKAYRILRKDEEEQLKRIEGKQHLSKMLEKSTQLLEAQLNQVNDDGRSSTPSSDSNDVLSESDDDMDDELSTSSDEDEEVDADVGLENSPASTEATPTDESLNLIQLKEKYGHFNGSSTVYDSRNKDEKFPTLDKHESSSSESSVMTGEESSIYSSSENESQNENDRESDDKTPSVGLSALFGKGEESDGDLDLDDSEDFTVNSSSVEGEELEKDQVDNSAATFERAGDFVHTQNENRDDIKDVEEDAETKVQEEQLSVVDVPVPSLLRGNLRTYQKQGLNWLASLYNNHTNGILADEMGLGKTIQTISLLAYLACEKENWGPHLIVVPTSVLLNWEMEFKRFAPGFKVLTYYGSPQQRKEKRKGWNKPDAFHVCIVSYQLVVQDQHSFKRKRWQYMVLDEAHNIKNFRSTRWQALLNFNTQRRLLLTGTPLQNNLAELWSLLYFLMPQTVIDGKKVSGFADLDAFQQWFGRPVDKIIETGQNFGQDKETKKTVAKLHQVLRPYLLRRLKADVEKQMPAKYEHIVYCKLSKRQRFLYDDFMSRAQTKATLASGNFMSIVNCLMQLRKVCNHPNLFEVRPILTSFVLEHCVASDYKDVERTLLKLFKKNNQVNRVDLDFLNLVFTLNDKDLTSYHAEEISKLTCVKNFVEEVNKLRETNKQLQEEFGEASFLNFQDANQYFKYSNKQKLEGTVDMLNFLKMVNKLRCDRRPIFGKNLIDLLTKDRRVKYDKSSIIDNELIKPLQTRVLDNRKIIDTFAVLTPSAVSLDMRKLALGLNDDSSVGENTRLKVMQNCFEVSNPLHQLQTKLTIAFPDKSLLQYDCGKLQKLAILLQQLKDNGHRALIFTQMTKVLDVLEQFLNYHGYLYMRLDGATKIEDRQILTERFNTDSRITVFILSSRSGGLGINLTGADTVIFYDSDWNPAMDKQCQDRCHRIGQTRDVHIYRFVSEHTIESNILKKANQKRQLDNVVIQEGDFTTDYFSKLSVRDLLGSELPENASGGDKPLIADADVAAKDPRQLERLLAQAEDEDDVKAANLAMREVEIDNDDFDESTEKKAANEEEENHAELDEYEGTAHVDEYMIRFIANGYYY
binder,measurement,setting,value
B1,binding result,Swc5,binds
B2,binding result,Act1,binds
same,binding result,[1],binds
